Assay [1] deals with T1, human PD-L2 expressed on CHO cells (CHO-hPD-L2 cells) (human, UniProt Q9BQ51 20-273).
T1 chain: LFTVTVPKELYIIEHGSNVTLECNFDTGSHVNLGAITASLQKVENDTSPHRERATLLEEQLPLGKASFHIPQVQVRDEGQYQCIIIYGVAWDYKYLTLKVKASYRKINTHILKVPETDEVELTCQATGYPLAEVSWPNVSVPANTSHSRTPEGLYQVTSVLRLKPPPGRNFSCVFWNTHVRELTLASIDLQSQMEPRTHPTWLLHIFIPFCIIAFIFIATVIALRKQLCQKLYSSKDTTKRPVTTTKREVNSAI
Put plainly: flow cytometry cell binding.

Assay [2] has as its target human PD-L1 expressed on CHO cells (CHO-hPD-L1 cells) (human, UniProt Q9NZQ7 19-290). Put plainly: flow cytometry cell binding.

human PD-L1 expressed on CHO cells (CHO-hPD-L1 cells), sequence (Q9NZQ7 19-290): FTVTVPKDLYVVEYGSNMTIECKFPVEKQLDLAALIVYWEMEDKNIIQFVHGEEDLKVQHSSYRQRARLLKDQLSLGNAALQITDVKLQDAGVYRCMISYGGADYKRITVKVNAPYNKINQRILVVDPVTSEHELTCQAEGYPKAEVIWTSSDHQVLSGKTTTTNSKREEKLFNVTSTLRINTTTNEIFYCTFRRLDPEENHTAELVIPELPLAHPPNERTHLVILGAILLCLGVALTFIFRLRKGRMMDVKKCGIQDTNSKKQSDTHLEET

B1: anti-PD-L1/PD-L2 bispecific antibody Fc fusion protein Bi-203-204 (bispecific antibody, V domains shown)
V domain 1: QVQLVESGGGLVKPGGSLRLSCAASGHTFIIYAIGWFRQAPGKGLEFVATINWSGSMTNYADSVKGRFTISRDNAKNTVYLQMNSLKPDDTAVYYCAAYVGATISTAHSRYDYWGQGTLVTVSS
V domain 2: EVQLVESGGGLVQPGGSLRLSCAASGRTFSSMTIGWFRQAPGKGLEFVSGIGWTSGLTVYADSVKGRFTISRDNAKNSMYLQMNSLRAEDTAVYYCAADSMNRGQFDYWGQGTLVTVSS
In general, EC50 refers to the concentration at which the effect is half-maximal. A higher EC50 goes with weaker potency. Turning to B1, the EC50 in assay [1] is 1.25 nM; in assay [2], 3.79 nM.

The record behind these values is US20230167200A1 (published 2023).
